By Kd is commonly meant the constant that tells how readily two partners part at equilibrium. A high value points to lower affinity. As a reminder, the IC50 is the concentration that gives 50% inhibition.

For experiment [1], the target named is purified 20S core peptidase (CP) (S. cerevisiae) (UniProt P21242). As to the kind of experiment: Suc-LLVY-AMC peptidase activity titration.
Experiment [2] shares this target. As to the kind of experiment: NADH-coupled ATPase displacement assay.

Sequence of UniProt P21242 (P21242 whole entry, looked up): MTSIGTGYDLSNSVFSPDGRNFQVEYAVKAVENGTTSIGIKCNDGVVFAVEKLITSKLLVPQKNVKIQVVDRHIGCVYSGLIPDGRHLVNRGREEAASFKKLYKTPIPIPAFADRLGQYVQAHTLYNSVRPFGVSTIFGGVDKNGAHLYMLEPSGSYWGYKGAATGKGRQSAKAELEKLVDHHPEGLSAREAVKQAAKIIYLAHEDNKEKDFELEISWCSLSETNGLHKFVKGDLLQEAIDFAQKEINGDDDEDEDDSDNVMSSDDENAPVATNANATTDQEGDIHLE

In experiment [1], “3x-Flag-tagged Blm10 (from UniProt P43583 1-2143) (natural protein)” displayed a Kd of 0.065 µM. The substance also came in with an IC50 in experiment [2] of 3 µM.

These data come from article doi:10.64898/2025.12.08.693079.
